The results in this text go back to the Immune Epitope Database (IEDB).

In one assay the target is HLA-B*51:01. Briefly: IEDB peptide-MHC binding, purified MHC/direct/fluorescence; filed as Kd, often an IC50 or EC50 that approximates it; ≥ and ≤ were set here for values at or beyond the usual limits of such assays. To be noted: source organism: Mycobacterium tuberculosis.
For assay [1], the target named is HLA-B*07:02. The description is as above.
The target in assay [2] is HLA-B*15:01. The assay is described as above.
A further assay addresses HLA-B*45:06. The experiment in a line: IEDB peptide-MHC binding, purified MHC/competitive/fluorescence; filed as Kd, often an IC50 or EC50 that approximates it; ≥ and ≤ were set here for values at or beyond the usual limits of such assays.
The target of another assay is HLA-C*04:01. The assay is described as above.
Another assay has as its target HLA-A*32:07. The description is as above.
For a further assay, the target named is HLA-B*15:42. The assay is described as above.
Another assay has as its target HLA-A*11:01. Briefly: IEDB peptide-MHC binding, purified MHC/direct/fluorescence; filed as Kd, often an IC50 or EC50 that approximates it; ≥ and ≤ were set here for values at or beyond the usual limits of such assays.
For another assay, the target named is HLA-A*30:01. Briefly: IEDB peptide-MHC binding, purified MHC/competitive/radioactivity; filed as Kd, often an IC50 or EC50 that approximates it; ≥ and ≤ were set here for values at or beyond the usual limits of such assays. To be noted: source organism: Dengue virus 1 Brazil/97-11/1997.
In a further assay the target is HLA-A*32:01. The assay is described as above. To be noted: source organism: Dengue virus 1 Brazil/97-11/1997.
Another assay deals with HLA-B*83:01. The experiment in a line: IEDB peptide-MHC binding, purified MHC/competitive/fluorescence; filed as Kd, often an IC50 or EC50 that approximates it; ≥ and ≤ were set here for values at or beyond the usual limits of such assays.
Assay [3] deals with HLA-A*31:01. The description is as above. Conditions: source organism: dengue virus type 1.
Another assay addresses HLA-B*46:01. The experiment in a line: IEDB peptide-MHC binding, purified MHC/direct/fluorescence; filed as Kd, often an IC50 or EC50 that approximates it; ≥ and ≤ were set here for values at or beyond the usual limits of such assays.
A further assay deals with HLA-B*27:05. The assay is described as above.
In a further assay the target is HLA-B*57:01. The assay is described as above.
Another assay deals with HLA-A*03:01. Described as above. To be noted: source organism: Escherichia coli O157:H7.
The target in a further assay is HLA-B*58:01. The description is as above.
A further assay has as its target HLA-B*48:01. The assay is described as above.
Assay [4] addresses HLA-A*31:01. Described as above. To be noted: source organism: Escherichia coli O157:H7.
The target of another assay is HLA-B*40:01. The assay is described as above.
For the next assay, the target named is HLA-A*01:01. The description is as above.
Assay [5] concerns the target HLA-A*02:01. Described as above.
In assay [6] the target is HLA-B*15:17. Described as above. To be noted: source organism: Escherichia coli O157:H7.
In assay [7] the target is HLA-A*69:01. The experiment in a line: IEDB peptide-MHC binding, purified MHC/competitive/fluorescence; filed as Kd, often an IC50 or EC50 that approximates it; ≥ and ≤ were set here for values at or beyond the usual limits of such assays. To be noted: source organism: Escherichia coli.
Another assay concerns the target HLA-A*02:06. The assay is described as above.
Assay [8] concerns the target HLA-A*68:02. The description is as above.
In the next assay the target is HLA-A*26:02. Described as above.
The target of assay [9] is HLA-B*15:01. The assay is described as above. Conditions: source organism: Escherichia coli.
The target of assay [10] is HLA-A*69:01. Briefly: IEDB peptide-MHC binding, purified MHC/direct/fluorescence; filed as Kd, often an IC50 or EC50 that approximates it; ≥ and ≤ were set here for values at or beyond the usual limits of such assays. To be noted: source organism: Buffalopox virus.
The target of another assay is HLA-A*26:03. Described as above. Conditions: source organism: Variola virus.
In assay [11] the target is HLA-A*68:02. The assay is described as above. Conditions: source organism: Buffalopox virus.
For a further assay, the target named is HLA-B*39:01. The description is as above. To be noted: source organism: Buffalopox virus.
A further assay addresses HLA-B*18:01. Briefly: IEDB peptide-MHC binding, purified MHC/competitive/fluorescence; filed as Kd, often an IC50 or EC50 that approximates it; ≥ and ≤ were set here for values at or beyond the usual limits of such assays. To be noted: source organism: Variola virus.
The target of assay [12] is HLA-B*07:02. Described as above. Conditions: source organism: Variola virus.
Assay [13] has as its target HLA-B*15:17. The assay is described as above. To be noted: source organism: Variola virus.
In the next assay the target is HLA-B*35:01. Described as above. To be noted: source organism: Variola virus.
Assay [14] deals with HLA-A*02:01. Described as above. To be noted: source organism: Toxoplasma gondii GT1.
[15] abbreviates: source organism: Mycobacterium tuberculosis.
The mark [16] stands for this setting: source organism: dengue virus type 1.
Where [17] appears, read: source organism: Escherichia coli O157:H7.
Setting [18] is: source organism: Escherichia coli.
Where [19] appears, read: source organism: Buffalopox virus.
The mark [20] stands for this setting: source organism: Francisella tularensis subsp. tularensis FSC198.

By Kd is commonly meant the equilibrium constant for the complex coming apart. Turning to ALRQARAAF, the Kd with HLA-B*51:01 is at least 20 µM; with HLA-B*07:02 [1] (setting [15]), 0.0089 µM; in the assay with HLA-B*15:01 [2] (source organism: Mycobacterium tuberculosis str. Haarlem), 0.012 µM; with HLA-B*45:06 (setting [15]) it was at least 5 µM; with HLA-C*04:01 (setting [15]) it was at least 5 µM; with HLA-A*32:07 (setting [15]), 0.157 µM. Moreover, the Kd in the assay with HLA-B*15:42 (setting [15]) is at least 5 µM.
Regarding ATYGWNLVK, the Kd was at most 0.001 µM with HLA-A*11:01 (source organism: Dengue virus 1 Singapore/S275/1990); 0.212 µM with HLA-A*30:01; 0.755 µM in the assay with HLA-A*32:01; at least 5 µM with HLA-B*45:06 (setting [16]); at least 5 µM in the assay with HLA-B*83:01 (setting [16]); 0.0774 µM in the assay with HLA-A*32:07 (setting [16]). The Kd in the assay with HLA-A*31:01 [3] was 0.00148 µM; with HLA-B*15:42 (setting [16]), at least 5 µM.
With EQRLIDICV, the Kd with HLA-B*46:01 (setting [17]), in the assay with HLA-B*27:05 (setting [17]), in the assay with HLA-B*57:01 (setting [17]), with HLA-A*03:01, with HLA-A*11:01 (setting [17]) and with HLA-B*58:01 (setting [17]) was at least 20 µM in each case. In addition, the Kd with HLA-B*48:01 (setting [17]), with HLA-A*31:01 [4], in the assay with HLA-B*07:02 [1] (setting [17]), with HLA-B*40:01 (setting [17]), with HLA-A*01:01 (setting [17]) and with HLA-A*02:01 [5] (setting [17]) was at least 20 µM each time. The dissociation constant (Kd) is at least 20 µM with HLA-B*15:17 [6]; at least 20 µM with HLA-A*69:01 [7]; 0.846 µM with HLA-A*02:06 (setting [18]); at least 20 µM with HLA-A*68:02 [8] (setting [18]); at least 20 µM with HLA-A*26:02 (setting [18]); 0.863 µM in the assay with HLA-B*15:01 [9].
Regarding IHSDQLSKF, the Kd with HLA-A*69:01 [10], with HLA-B*46:01 (setting [19]), in the assay with HLA-B*27:05 (setting [19]), with HLA-B*57:01 (setting [19]), with HLA-A*26:03 and with HLA-A*68:02 [11] was at least 20 µM in each case. In addition, the Kd with HLA-B*58:01 (setting [19]), in the assay with HLA-B*48:01 (setting [19]), in the assay with HLA-B*39:01, with HLA-B*40:01 (setting [19]), with HLA-A*01:01 (setting [19]) and in the assay with HLA-B*15:01 [2] (setting [19]) was at least 20 µM each time. Further, the Kd with HLA-A*02:01 [5] (setting [19]) was at least 20 µM; in the assay with HLA-B*18:01, 4.57 µM; with HLA-B*07:02 [12], at least 20 µM; with HLA-A*26:02 (source organism: Variola virus), 2.68 µM; in the assay with HLA-B*15:17 [13], at least 20 µM; in the assay with HLA-B*35:01, 2.38 µM.
As to MGAGLVFPI, the Kd was at least 5 µM with HLA-B*45:06 (setting [20]); at least 5 µM with HLA-B*83:01 (setting [20]); at least 5 µM with HLA-C*04:01 (setting [20]); 0.0448 µM with HLA-A*32:07 (setting [20]); at most 0.0001 µM with HLA-A*68:02 [8] (setting [20]); at least 5 µM with HLA-B*15:42 (setting [20]).
On to VLGSWPVDL, for which the Kd with HLA-A*02:06 (source organism: Toxoplasma gondii GT1) is 2.46 µM; in the assay with HLA-A*02:01 [14] it was 0.209 µM.
